The source of these data is paper PMC11098746 (2024).

The assay addresses FGFR4 ectodomain (Homo sapiens, UniProt P22455). The assay can be described thus: AVEXIS normalised luminescence.

B1: 62 (protein)
chain: EFKRKQKVEINSLQTNKNNDNIREEKIKGDVESQPDVDGDTCVIFSSSEGNSRNCWCPRGYILCSEEDVLDVQGKLNEIKNKHERSLVTPLWMKRLCDNSNDVGFKSMSVVIDYELAVLCKDGSNKDYADFEIIGASGYITGEEMIEEQKRNPWYVPRKCTVNNFYLCRKVENDNVNCAYTPWSDWSACKNNAQKRYRKVRRSNQNNENFCLWNDKIVPRNIMEQTRSC
modifications: bait human Fc-tagged dimer
B1 yielded a binding score of 1.47.

B2: 73 (protein)
chain: NNIKLNDKENINFESYFNKRTNEENVLNKNVAKEMGDTFVAHKAIELNINHHHVNNDKEFNNNNNNKHQPYYHNEHDKKFSESLKAHMDHLKILNNDLKQHIDKKERNEIYENNDLKKYIIKEIQNNKYLNKEKKSSEDIQILEEHSKKLQKEIHEWLESVNNIEEKSNILKNIKSQLLNNIASLNHALSEEIKNINDIKELQKQQNDLFSENWLYFLPSSSDYLLNEKKKNLYDNQDNSMKDDINNNDKYNIFNYLQNVQDKDNQYEVMKQDNNNIHSGSS
modifications: bait human Fc-tagged dimer
The molecule B2 registered a binding score of 198.

B3: 69 (protein)
chain: IYYCNDNILENANNDDSTKDINNINKNSANKAKSEKTSNYNNDQYNIDDAYNEDEENDEEEGDDDENDHFEVPINCAGGNCFDSMDDINKIIDNKKKKMKYRRRRGKAIQIIKPNVNHAELIIIEENLEIFKRIDKPIAIVSVLGDMHTGKSFLLNLLNEHVIPDINKANKYIENGFKVGNDITASTYGIWIWSEPIRINVKKLKKIYEYINENFANFIKSYEYEKDEYNEEIIDLLNLYKTDDWISNVEELNLADTDEVNLILMDTQGLNSPNVNKRYDEILYALTNLISTDIIFLTMKMINNKDLEFIENIAKDANLFMLRAYTRSSGSTFSIKKNNFHKILDTLNNNLENNALILESIASKNLMWVVHDFSQRLDVRKGKLWLDILLNSDRRDLDIKYWKKIISNKAKDKHDAYTTKKQKIAYLTYNENSASGLLPNNNNNNNNANDASSNYKLNILYKNIDCVLLRNMYHNKEFDFTKANINDLNEEYKNDVLLLRYKIYLRALLFPKKMYSDVQINNIINKIRKEQKLREEQEKNKDNKKNDANNQANDLNSNKDETSGSQVTNRFMSGHDVYDFITFLVKSANQNLFTNVNQFFKHFKINRAEISRNDLIFLYKKYLLQFMENEDVEFISNLNDENDDLFLQKEGNNAAVNHDENSDADSLFNDHDENMQLKEHNIKDGEDNTHQKKDSYKLPPLLNEIKKYEELIREQILNIWYKYTESDFHDEEEKELIKDIENNLYERLDQIKIEMLELGEMNIRKFCKIACEDALQIVVEDIKMKSDQYPIKQKDLTTFFESVSYNLIKYLEKKLSKNSDKLDLIYYKDNICSPLINNAFQEFYFLKKKNIALNENRLKSYFSNAVEKGKEVFEVLAENTENIAEYFKNKNMFYTVLDKWTSEAINTYTLTLSDFAKEEKEINDEYLNVLNNDIKLLKQKAMEKWHNHCRDKTSALYNMHKSNLKKNFLENFNFPLDELVLQDIFLNLKGQEELKYMDIYCANEDSWNSEYKNFLKLTDEIFQFIKDENLKAIQITCQQPLDELKNGIKGEIHKYYLWSSLKSTLYNRALIVLSSNIENIYIKNQRENKIQSNLDEKYNNKNKNYKRISKDLMSKVINRWLNNDIYNVYYP
modifications: bait human Fc-tagged dimer
In the case of B3, the binding score amounted to 0.719.

B4: 81 (protein)
chain: EFVKGSYESKGYPLIHLMNNNEYTGSANNFIKNNLINLLYIYKDVKFDEEKTLGIDSFLDIEDDTKIERLIKEKMLYINKYINSRQMIKYSGFIYLYEIIEKKNFYFLLHFLMTNNNNGLIIILPEDMYINVDEYYRINKINKLNDQNKKNKVVSQDLLEKRIMFVQSLILNMKLQQSIYFIKNNKDIEKIYENYQSKFAYFDLTRNVAISPISKIQNVYKMNSKSLYYFLNKNNNIHINTIFNKQQDNQAFLLTKQKTIIICADFNVFNIFSDLPSNTAFTNSNLITIQNLIKLFYDVYNKEQVNYNILFFFTNYYYGIQDFLNSINVIFKENIEFVICLDNLNNADFYIYESNKAQPQNVQAFYRILNNIVKGSIKKNVQMVNEKIKIHSKHLPSLHEYFVLNKINSFSLSSSKKNNNMIFLNKFPMLQPKLNIQNVKNNIAIIFKSLYLYMTQKKTDQKENTQQEQSIEKNEKEKSMLTYINKNMASNDDMNTIDYNLNKYNKFFIYKEDTLKLFNYFKTIINSNIADTNFLIKDYKLTTDKKQKFFYQKYAHVTFSMAISYVFH
modifications: bait human Fc-tagged dimer
The molecule B4 came in with a binding score of 0.817.

B5: 29 (protein)
chain: QNYWEHPYQNSDVYRPINEHREHPKEYEYPLHQEHTYQQEDSGEDENTLQHAYPIDHEGAEPAPQEQNLFSSIEIVERSNYMGNPWTEYMAKYDIEEVHGSGIRVDLGEDAEVAGTQYRLPSGKCPVFGKGIIIENSNTAFLTPVATGNQYLKDGGFAFPPTEPLMSPMTLDEMRHFYKDNKYVKNLDELTLCSRHAGNMIPDNDKNSNYKYPAVYDDKDKKCHILYIAAQENNGPRYCNKDESKRNSMFCFRPAKDISFQNYAYLSKNVVDNWEKVCPRKNLQNAKFGLWVDGNCEDIPHVNEFPAIDLFECNKLVFELSASDQPKQYEQHLTDYEKIKEGFKNKNAAMIKSAFLPTGAFKADRYKSHGKGYNWGNYNTETQKCEIFNVKPTCLINNAAYIATTALSHPIEVENNFPCSLYKDEIMKEIERESKRIKLNDNDDEGNKKIIAPRIFISDDKDSLKCPCDPEMVSNSACRFFVCKCVERRAEVTSNNEVVVKEEYKDEYADIPEHKPT
modifications: bait human Fc-tagged dimer
Regarding B5, the binding score came out at 1.43.

B6: 39 (protein)
chain: GTIEIKLSEFVGDSVNLAAKLHGFFLELNVNIAFTVICSNGMKALNGICIPCPLGSYNNINEYIKNNNIYECTLCHNNAATKNEGSTSISQCLCLPGYELNNNDLCVPCKRGTWKTKLSNSPCIFHCYPNSYSLVQGSRSEEESKCKCKRGFYFVSKDSINFCDNCNIGYFCPGGYKIGEKKCPKNTANIAQNNFAISSCKCDVGFEPFDSSNLNAYNFKNDPIFNDYKDFLDDVKSSQICVPCKEGFYKNTVSEEKCKRCSDNVYTDGLQSTSISNCKKCEKGYYLQSEDSCIICPDNHYCPGAYINDPKYAIYENQKIPCGDKSLTIPPNNLNVAHLNCLCKKGFEFIKTDDNEFDCLEVPKNYYKSHLGNKEKEPCPENSVTLYTQTKSKVKCLCMPGYYWDLKEFKCIKCPKGHYCPGGYLKNCFNNQNLHSCKPQKKKCPLKNSATQTKESFSQSSCLCDKGYTINKEELRECIPCPINTYKDVISNAECTKCLTPYTTDGQIGSTKEEDCTCSGGFFFLNHCLPCSDKNTYCKGGKMIVNNKNKAIHYGPSKCPPNTAVSFETERPYNKGFCVCQKGFKHVYTTSDFTKICAPCERGFFKTIIGDFSCESKCKPNSASFVGTIHETHCFCLENYYFKNGICLNCPDGAYCEGGFQKETLLYMKKNEYYLDTSKIKHIMPVPKENYALYKLKTNIYNTDWFIVECPIKEACLYNEKCHESMTNFLCGECKKGYTNNFAKLNLCIKCSGHIMN
modifications: bait human Fc-tagged dimer
Molecule B6 yielded a binding score of 0.948.

B7: 63 (protein)
chain: FRGNNGHNSASSLYNGAQFIEQLNNAFTSAFLESQSMNKIGDDLAETISNELVSVLQKNSPTFLESSFDIKSEVKKHAKSMLKELIKVGLPSFENLVAENVKPPKVDPATYGIIVPVLTSLFNKVETAVGAKVSDEIWNYNSPDVSESEESLSDDFFD
modifications: bait human Fc-tagged dimer
Molecule B7 showed a binding score of 1.23.

B8: 14 (protein)
chain: KNINLNDEGKKKQSGIINENEDGKNNKANNNKKVQHNKINRKGNNAVTKKTDEHKNDGDAENKKNGEHKNDGDGKNKKNGEHKNDGDGKNKKMDEHLYDIDGENKKNGEHLYDVDGENKKNGEHLYDIDGENKKNGEHLYDIDGENKKTDEHLYDVDGGKNNILEYNNIDQHNEFPESLENDNSYDKLFDDVELRDIIHNEKFFENLKNVNNNDVHNFLLVDKEMERRKEEEKKKSRKLEEDEEDDEDEEEDNDEKWKEENKNNAASSSSSSSNNFNKNYDIYDNRDLYNYDNLVDITQEEHINVPNINDEINEGRKHDKEDFLIFEKRLNEAEDRNDASDGDNKMEDLINNHFDDSGDNGAYENIQVKKELYNKNEKIIKGRDNNLNDGDIHMNKNNAANKLNNNNNNNNNDNNMNSEMKYKTFKEEYEEQILSKP
modifications: bait human Fc-tagged dimer
In turn, B8 showed a binding score of 0.821.

B9: 48 (protein)
chain: GCIKLKTSYKHEPILLLKNDERIISLNKIIPYLTEEVFISKDNIMTKINVENNICIELIKKHEILNTPIEHFFHFTNREYTIDLRNNDNIYNYAKRILNNKLDFELCNKILSFTIPINYNICSFPSYHNYFLYINYLKDVKIELIISALEKAKFLFLKIPNTFNLNTAHANFNDNDYIIEKGILENDLIKIDISKIIHRYICKKYYLYKSDEQINDDDLRQINNNNANNDISDKEIKMVLMTSHTLSDIIIFPSIIQNVQALKHYKNIKNVVKLKKKIKKRYTEWENWAPCYNVCNNNFAYKCRYYKCTTENQEFCDQNFHMNFAECPFTPCEDAIKKENEKKEIEKDKNKAIIINHENNRDQEGPIDDETMLRYRKNKKISFFMWIINNKK
modifications: bait human Fc-tagged dimer
B9 displayed a binding score of 0.752.

B10: 64 (protein)
chain: RMNVVSHNSMKKVGEEGKDEKIISCVVEYVIKGDLSIDDGDFCDSNSICSNNPGLCDNGQVVVPGDYCSNYYDITLVVEESSFVQKDYWLKGTIPFLESMVFNSNVAKDKAHMSVVLFAGKQRVVVPFTDESSQDKNMLLEKINSIDEGIATSSDTLYVNALKYAIENVIFGDGTRKDAPKVAVLFYYGFDYGANKNMIPDVVQTYKEQNVKLIIVGIALGIRDNAYLLADCSIGDENCVNVVFKPWDFVIPAAADVNQKICDKNKA
modifications: bait human Fc-tagged dimer
B10 returned a binding score of 0.876.

B11: 60 (protein)
chain: GIITGKLNYFGTFSLKIFAKTYFQYKINTYSNLYSYCGISQEYNKAKSTCESCPIGTFWNSEKLLCENCQKYIENTATLKNGAKLKTDCLCSPGYEYSDKSSKCEKCKPGYYKKSVGNFICIKGCPINEKSITYGAKSYAEMDCKCIEGYYRKEDKCVLCLSNYYCPGNELIKPCDKNKISKEGVIHKNDCICKENYIKDNKNNNCVYCASIAKILGKPIYCSLCDPIYFHEDIYKNIFLLPNNIHNYGLINNIYNYDEDLSLQGNIMKYAYFHKTTNIERNFAHYINIKNIYHTFNNNINNYDYLTNSKFAIEIDIPEPKKCIFCDSGYYIKKKKCISCTTKYCEGFNHNPKACPKNSVVNKMKASSIFDCSCKRGYGILNERRNAYSNTITCQICPQNFFKHIISDDSCFPCPLYTYTLNQGATSILQCLPKKGYFIYMFKSINIDYLRYKFDINTENRIYNYFENNNKIFDEDVYNFFLNKQYSKFFYNTENK
modifications: bait human Fc-tagged dimer
The molecule B11 gave a binding score of 0.959.

B12: 54 (protein)
chain: DQLDMGSVHNNNAVVGNSASHSPSSSSSSPSSSSSSSSSSPSASSSSSSSSPASSSSSPSSTSDDSKNAALDKIDEELQKKKKNEKL
modifications: bait human Fc-tagged dimer
As for B12, the binding score was found to be 0.958.
